Results: the supplement of paper PMC10724198
± gives the standard deviation of the averaged measurements.

What was measured:
[1] = test system: Saccharomyces cerevisiae; experiment: protein stability index of tFT-peptide fusion (C-terminal peptide) (PSI (0-1 scale)); higher = more stable (slower turnover); settings: genetic background: wild type; temperature: 30 C
[2] = test system: Saccharomyces cerevisiae; experiment: as above
Method: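 MPS profiling in S. cerevisiae of the tFT-X12 degron library: putative degron peptides plus stable controls, 12 aa, fused to the C-terminus of a sfGFP-mCherry timer. Cells are FACS-sorted into 8 mCherry/sfGFP bins and deep-sequenced. PSI runs from 0 (unstable) to 1 (stable). Backgrounds are wild type, das1Δ and doa10Δ at 30 °C, and wild type, das1Δ, cdc34-1 and cdc53-1 at 37 °C; 2-3 technical replicates each.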

[3] = genetic background: cdc34-1, temperature: 37 C
[4] = genetic background: cdc53-1, temperature: 37 C
[5] = genetic background: das1 deletion, temperature: 30 C
[6] = genetic background: das1 deletion, temperature: 37 C
[7] = genetic background: doa10 deletion, temperature: 30 C
[8] = genetic background: wild type, temperature: 30 C
[9] = genetic background: wild type, temperature: 37 C
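Also: PSI is a weighted mean of sequencing reads over stability bins, variants kept only with over 10 reads, mCherry proximal and sfGFP distal, peptide attached via GGGS linker.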

Row | Sequence | protein stability index [1] | protein stability index [2, 3] | protein stability index [2, 4] | protein stability index [2, 5] | protein stability index [2, 6] | protein stability index [2, 7] | protein stability index [2, 8] | protein stability index [2, 9]
1 | TALSRLFECFLS | 0.461 ± 0.046 | 0.654 ± 0.052 | 0.744 ± 0.026 | 0.701 ± 0.028 | 0.768 ± 0.01 | 0.328 ± 0.0048 | 0.343 ± 0.03 | 0.499 ± 0.035
2 | TCGAKWIFSHIC | 0.267 ± 0.019 | 0.6 ± 0.054 | 0.754 ± 0.011 | 0.646 ± 0.022 | 0.772 ± 0.016 | 0.14 ± 0.0052 | 0.152 ± 0.0092 | 0.275 ± 0.035
3 | TFVGWIVWLCGS | 0.331 ± 0.018 | 0.537 ± 0.026 | 0.621 ± 0.0073 | 0.487 ± 0.033 | 0.6164 ± 0.0052 | 0.216 ± 0.0069 | 0.258 ± 0.022 | 0.456 ± 0.0097
4 | TFVLREYVWVMS | 0.304 ± 0.0032 | 0.443 ± 0.049 | 0.425 ± 0.011 | 0.254 ± 0.038 | 0.443 ± 0.0057 | 0.202 ± 0.0032 | 0.231 ± 0.027 | 0.426 ± 0.027
5 | TIKGRLNVRKIE | 0.552 ± 0.11 | 0.653 ± 0.055 | 0.7066 ± 0.0065 | 0.623 ± 0.0085 | 0.741 ± 0.025 | 0.3538 ± 0.0019 | 0.463 ± 0.032 | 0.573 ± 0.085
6 | TPYIFVLACLHV | 0.372 ± 0.0091 | 0.395 ± 0.0014 | 0.476 ± 0.0062 | 0.326 ± 0.013 | 0.5039 ± 0.0042 | 0.274 ± 0.013 | 0.309 ± 0.021 | 0.461 ± 0.0069
7 | TRKKENERRKNG | 0.422 ± 0.031 | 0.653 ± 0.032 | 0.7213 ± 0.0044 | 0.654 ± 0.015 | 0.71 ± 0.025 | 0.245 ± 0.013 | 0.278 ± 0.04 | 0.558 ± 0.012
8 | TSFCIFFVRFVI | 0.322 ± 0.025 | 0.374 ± 0.059 | 0.478 ± 0.021 | 0.365 ± 0.022 | 0.50904 ± 0.00041 | 0.277 ± 0.021 | 0.289 ± 0.041 | 0.469 ± 0.015
9 | TVETYNRARKAS | 0.373 ± 0.075 | 0.663 ± 0.0089 | 0.674 ± 0.014 | 0.631 ± 0.038 | 0.7 ± 0.015 | 0.218 ± 0.013 | 0.232 ± 0.039 | 0.412 ± 0.005
10 | TVVIFLCSYITT | 0.186 ± 0.0068 | 0.183 ± 0.06 | 0.24 ± 0.11 | 0.139 ± 0.015 | 0.298 ± 0.008 | 0.0829 ± 0.03 | 0.122 ± 0.04 | 0.275 ± 0.019
11 | TYNVMFSPWRKA | 0.206 ± 0.011 | 0.604 ± 0.07 | 0.7064 ± 0.005 | 0.667 ± 0.032 | 0.774 ± 0.0098 | 0.106 ± 0.007 | 0.148 ± 0.034 | 0.3808 ± 0.0022
12 | TYYPLNRSRFIG | 0.277 ± 0.15 | 0.5858 ± 0.0048 | 0.7261 ± 0.0025 | 0.635 ± 0.035 | 0.7616 ± 0.0049 | 0.108 ± 0.0073 | 0.139 ± 0.0058 | 0.241 ± 0.023
13 | VAALFPPLRFLN | 0.286 ± 0.045 | 0.554 ± 0.0075 | 0.711 ± 0.008 | 0.653 ± 0.017 | 0.734 ± 0.014 | 0.0912 ± 0.013 | 0.122 ± 0.036 | 0.224 ± 0.031
14 | VCFAWWGARCVA | 0.477 ± 0.023 | 0.601 ± 0.01 | 0.619 ± 0.0063 | 0.468 ± 0.026 | 0.6475 ± 0.0032 | 0.304 ± 0.024 | 0.357 ± 0.028 | 0.534 ± 0.029
15 | VCFFLFWCLSFS | 0.454 ± 0.034 | 0.4239 ± 0.0013 | 0.479 ± 0.021 | 0.343 ± 0.05 | 0.4916 ± 0.00098 | 0.348 ± 0.011 | 0.353 ± 0.025 | 0.476 ± 0.021
16 | VCLCVIICSMSV | 0.0535 ± 0.018 | 0.0201 ± 0.00092 | 0.041 ± 0.019 | 0.0324 ± 0.008 | 0.0699 ± 0.011 | 0.0265 ± 0.0033 | 0.0249 ± 0.0073 | 0.0544 ± 0.01
17 | VCQVCVCFLFWR | 0.228 ± 0.043 | 0.0977 ± 0.0034 | 0.0539 ± 0.0021 | 0.145 ± 0.032 | 0.181 ± 0.0077 | 0.27 ± 0.018 | 0.139 ± 0.016 | 0.169 ± 0.017
18 | VCVVVLVGVVFL | 0.3 ± 0.036 | 0.188 ± 0.031 | 0.3491 ± 0.0012 | 0.237 ± 0.02 | 0.3828 ± 0.0025 | 0.198 ± 0.0055 | 0.24 ± 0.031 | 0.314 ± 0.0088
19 | VELRNCYLLVKA | 0.327 ± 0.037 | 0.204 ± 0.0059 | 0.282 ± 0.013 | 0.222 ± 0.037 | 0.381 ± 0.013 | 0.178 ± 0.018 | 0.22 ± 0.032 | 0.34 ± 0.0065
